The text below walks through data of patent US12258605B2, “Alkane oxidation by modified hydroxylases” (The California Institute of Technology, priority 2005, dated 2025).

Read-outs that look alike come from different tables or passages of the source.

A short description of test [1]: NADPH oxidation/consumption rates and coupling efficiency. Type of test: biochemical. How it is done:
NADPH oxidation rates were measured over 20 s at 25° C. using a BioSpec-1601 UV-Vis spectrophotometer (Shimadzu, Columbia, MD) and 1 cm pathlength cuvettes. […] The reaction was initiated by the addition of NADPH and the decrease in absorption at 340 nm was monitored. NADPH consumption rates were also measured without substrate (see Table 2).
The coupling efficiency is estimated from product formation rate/NADPH oxidation rate. In general, NADPH oxidation rates cannot be measured on the same time scale as ethanol formation rates.
For the data shown in Table 6 the initial NADPH consumption rates were measured over 15 seconds at 340 nm as nmol NADPH/min/nmol protein. Octane reactions contained 100 nM P450, 166 uM NADPH, and 4 mM octane in 1% ethanol and potassium phosphate buffer. […] Errors are at most 10%. Initial rates were measured by GC over 1 minute as nmol total products/min/nmol protein. Octane reactions contained 100 nM P450, 500 uM NADPH, and 4 mM octane in 1% ethanol and potassium phosphate buffer. Propane reactions contained 1 uM P450, 500 uM NADPH, and propane-saturated potassium phosphate buffer. Coupling was determined by ratio of product formation rate to NADPH consumption rate. Total turnover numbers were determined as nmol product/nmol enzyme. Octane reactions contained 10-25 nM P450, 500 uM NADPH, and 4 mM octane in 1% ethanol and potassium phosphate buffer. Propane reactions contained 10-25 nM protein, potassium phosphate buffer saturated with propane, and an NADPH regeneration system containing 100 uM NADP+, 2 U/mL isocitrate dehydrogenase, and 10 mM isocitrate.
For Table 13, total turnover numbers were determined as nmol product/nmol protein. […] The rates of product formation were measured by GC over 20 s as nmol total products/min/nmol protein. The reactions contained P450 (200 nM), NADPH (500 μM) and octane (2 mM) in ethanol (2%) and potassium phosphate buffer (0.1 M, pH 8.0). The rates of NADPH oxidation were measured over 20 s at 340 nm as nmol NADPH/min/nmol protein. The reactions contained P450 (200 nM), NADPH (160 μM), and octane (2 mM) in ethanol (2%) and potassium phosphate buffer (0.1 M, pH 8.0). The background NADPH oxidation rate (without substrate) rate was 220/min. The coupling efficiency is the ratio of product formation rate to NADPH oxidation rate.
The activity of BM-3-A328V on CM and other substrates such as HME, DME, and propane was further investigated by measuring product formation rate, cofactor consumption and coupling efficiency (Table 14). This mutant was also found to be capable to hydroxylate ethane to ethanol, although only for a total of about 5-10 turnovers. In Table 14 “consumption” rates are expressed as nmol NADPH/nmol enzyme/min and “product formation” rates are expressed as nmol product/nmol enzyme/min.

For test [2] the following is noted: lauric acid; cited from earlier work.
The conditions of test [3]: myristate; cited from earlier work.

B1: 35-E11: P450 BM-3 variant, SEQ ID NO:7: 53-5H substitutions plus E464G and I710T (protein)
chain: TIKEMPQPKTFGELKNLPLLNTDKPVQALMKIADELGEIFKFEAPGCVTRYLSSQRLIKEACDESRFDKNLSQALKFFRDFSGDGLFTSWTHEINWKKAHNILLPSFSQQAMKGYHAMMVDIAVQLVQKWERLNADEHIEVSEDMTRLTLDTIGLCGFNYRFNSFYRDQPHPFIISMVRALDEVMNKLQRANPDDPAYDENKRQCQEDIKVMNDLVDKIIADRKARGEQSDDLLTQMLNGKDPETGEPLDDGNISYQIITFLIAGHETTSGLLSFALYFLVKNPHVLQKVVEEAARVLVDPVPSYKQVKQLKYVGMVLNEALRLWPTFPAFSLYAKEDTVLGGEYPLEKGDEVMVLIPQLHRDKTIWGDDVEEFRPERFENPSAIPQHAFKPFGNGQRACIGQQFALHEATLVLGMMLKHFDFEDHTNYELDIKETLTLKPEGFVVKAKSKKIPLGGIPSPSTGQSAKKVRKKAENAHNTPLLVLYGSNMGTAEGTARDLADIAMSKGFAPQVATLDSHAGNLPREGAVLIVTASYNGHPPDNAKQFVDWLDQASADEVKGVRYSVFGCGDKNWATTYQKVPAFIDETLAAKGAENIADRGEADASDDFEGTYEEWREHMWSDVAAYFNLDIENSEDNKSTLSLQFVDSAADMPLAKMHGAFSTNVVASKELQQPGSARSTRHLEIELPKEASYQEGDHLGVIPRNYEGTVNRVTARFGLDASQQIRLEAEEEKLAHLPLAKTVSVEELLQYVELQDPVTRTQLRAMAAKTVCPPHKVELEALLEKQAYKEQVLAKRLTMLELLEKYPACEMKFSEFIALLPSIRPRYYSISSSPRVDEKQASITVSVVSGEAWSGYGEYKGIASNYLAELQEGDTITCFISTPQSEFTLPKDPETPLIMVGPGTGVAPFRGFVQARKQLKEQGQSLGEAHLYFGCRSPHEDYLYQEELENAQSEGIITLHTAFSRMPNQPKTYVQHVMEQDGKKLIELLDQGAHFYICGDGSQMAPAVEATLMKSYADVHQVSEADARLWLQQLEEKGRYAKDVWAG
modifications: mutant P450 35-E11 protein sequence
Take B1: the Coupling efficiency in test [1] (Octane) is on record as 64%; in test [1] (ethane, product formation rate/NADPH oxidation rate), 0.08%; in test [1] (propane) it was 26%. Also, the NADPH oxidation rate was ~520 min⁻¹ in test [1] (ethane); 390 min⁻¹ in test [1] (no substrate); 660 min⁻¹ in test [1] (octane, 1% ethanol); 800 min⁻¹ in test [1] (propane).

B2: Wild-type BM-3: wild-type cytochrome P450 BM-3 from Bacillus megaterium, SEQ ID NO:1 (protein, listed as Bacillus megaterium)
chain: TIKEMPQPKTFGELKNLPLLNTDKPVQALMKIADELGEIFKFEAPGRVTRYLSSQRLIKEACDESRFDKNLSQALKFVRDFAGDGLFTSWTHEKNWKKAHNILLPSFSQQAMKGYHAMMVDIAVQLVQKWERLNADEHIEVPEDMTRLTLDTIGLCGFNYRFNSFYRDQPHPFITSMVRALDEAMNKLQRANPDDPAYDENKRQFQEDIKVMNDLVDKIIADRKASGEQSDDLLTHMLNGKDPETGEPLDDENIRYQIITFLIAGHETTSGLLSFALYFLVKNPHVLQKAAEEAARVLVDPVPSYKQVKQLKYVGMVLNEALRLWPTAPAFSLYAKEDTVLGGEYPLEKGDELMVLIPQLHRDKTIWGDDVEEFRPERFENPSAIPQHAFKPFGNGQRACIGQQFALHEATLVLGMMLKHFDFEDHTNYELDIKETLTLKPEGFVVKAKSKKIPLGGIPSPSTEQSAKKVRKKAENAHNTPLLVLYGSNMGTAEGTARDLADIAMSKGFAPQVATLDSHAGNLPREGAVLIVTASYNGHPPDNAKQFVDWLDQASADEVKGVRYSVFGCGDKNWATTYQKVPAFIDETLAAKGAENIADRGEADASDDFEGTYEEWREHMWSDVAAYFNLDIENSEDNKSTLSLQFVDSAADMPLAKMHGAFSTNVVASKELQQPGSARSTRHLEIELPKEASYQEGDHLGVIPRNYEGIVNRVTARFGLDASQQIRLEAEEEKLAHLPLAKTVSVEELLQYVELQDPVTRTQLRAMAAKTVCPPHKVELEALLEKQAYKEQVLAKRLTMLELLEKYPACEMKFSEFIALLPSIRPRYYSISSSPRVDEKQASITVSVVSGEAWSGYGEYKGIASNYLAELQEGDTITCFISTPQSEFTLPKDPETPLIMVGPGTGVAPFRGFVQARKQLKEQGQSLGEAHLYFGCRSPHEDYLYQEELENAQSEGIITLHTAFSRMPNQPKTYVQHVMEQDGKKLIELLDQGAHFYICGDGSQMAPAVEATLMKSYADVHQVSEADARLWLQQLEEKGRYAKDVWAG
In the case of B2, in test [2], the “hydroxylation at the ω-1 position” value is on record as 48%. For the same molecule, the Coupling efficiency in test [3] is on record as 88%.
